*1 amine or outer side, *2 acyl side, *3 side chain or, on linkers, in order; H or OH if unused. Where a SMILES comes first, the peptide text is derived from it. Bridges are numbered along the chain shown (N, C = ends). Side-chain parts run from the residue outwards. [ ]: non-standard residue; d: D form. The star is where a group is joined. X1 = CC(C)(C)C(=O)CN1C(=O)[C@H](N*)CN(C2CCCCC2)c2ccccc21; DOTA = O=C(O)CN1CCN(CC(=O)O)CCN(CC(=O)*)CCN(CC(=O)O)CC1; 3Abz = Nc1cccc(C(=O)O)c1; CO = O=C([*:1])[*:2]
Assay: in vivo
Conditions: BALB/c nude, mouse, in vivo, iv, total radioactivity
Protocol: To a 0.5 M NaOAc buffer (20-50 μL, pH=4.5) was added 4 μL of exemplary or comparator compound in DMSO stock solution (2000 μM) and 2 mCi ^177Lu (ITM Isotope Technologies Munich), the resulting mixture was heated to 95° C. for 15 min. The resulting product was analyzed by radio-TLC and radio-HPLC (column: Shim-pack GIST 5 μm 4.6*150 mm; buffer A: 0.2% formic acid H2O; buffer B: 0.1% formic acid acetonitrile; flow rate: 1 mL/min; gradient: 0-5 min: 10% B to 95% B; then 5-8 min: 95% B). The labelled products were used immediately or diluted by a PBS buffer containing freshly added 3 mg/mL ascorbate.
All animal care and experimental procedure were performed by following the animal protocols approved by the ethics committee of China Institute of Radiation Protection. The BALB/c nude mice (Charles River, Beijing) were utilized for these studies. Mice were below 5 per cage in sterile, microisolator cages under temperature- and humidity-controlled conditions with a 12 h light/12 h dark schedule and fed irradiated rodent chow and reverse osmosis (RO) sterile water ad libitum. In preparation for tumor cell inoculations, mice were anesthetized with isoflurane (RWD Life Science Inc.) at an induction rate of 4% and maintained at a rate of 2.5% with 0.4 L oxygen delivered via precision vaporizer and a non-rebreathing apparatus. These mice received subcutaneous rear flank injections of approximately 4×10^6 AR42J cells ([…] pancreatic cancer cell line) suspended in 200 μL of phosphate-buffered saline (PBS) and Matrigel (Corning) (1/1). Xenografted tumors were allowed to grow for ~2-4 weeks post-inoculation and ranged in mass from 0.05 to 0.50 g (average tumor size, 0.20 g). […] The mice were euthanized, and the tissues and organs were excised from the animals at 4, 24 and 72 h post-injection. The tissues and organs were weighed, counted in a PerkinElmer 2480 WIZARD2 γ counter, and the percent injected dose (% ID) and % ID/g of each organ or tissue were calculated.

| Structure (SMILES) | tissue to tissue ratio at 24 h (T/K Tumor/Kidney ratio) | tissue to tissue ratio at 24 h (T/L Tumor/Liver ratio) | tissue to tissue ratio at 24 h (T/P Tumor/Pancreas ratio) | tissue to tissue ratio at 24 h (T/Sp Tumor/Spleen ratio) | tissue to tissue ratio at 24 h (T/St Tumor/Stomach ratio) | tissue uptake at 24 h (uptake Kidney) [%ID/g] | tissue uptake at 24 h (uptake Liver) [%ID/g] | tissue uptake at 24 h (uptake Pancreas) [%ID/g] | tissue uptake at 24 h (uptake Spleen) [%ID/g] | tissue uptake at 24 h (uptake Stomach) [%ID/g] | tissue uptake at 24 h (uptake Tumor) [%ID/g] |
| --- | --- | --- | --- | --- | --- | --- | --- | --- | --- | --- | --- |
| C[C@@H](O)[C@H](NC(=O)[C@@H]1CSSC[C@H](NC(=O)[C@@H](Cc2ccccc2)NC(=O)[C@H](CCCCNC(=O)c2cccc(NC(=O)N[C@@H]3CN(C4CCCCC4)c4ccccc4N(CC(=O)C(C)(C)C)C3=O)c2)NC(=O)CCOCCOCCOCCNC(=O)CN2CCN(CC(=O)O)CCN(CC(=O)O)CCN(CC(=O)O)CC2)C(=O)N[C@@H](Cc2ccc(O)cc2)C(=O)N[C@H](Cc2c[nH]c3ccccc23)C(=O)N[C@@H](CCCCN)C(=O)N[C@@H]([C@@H](C)O)C(=O)N1)C(=O)O [Compound I-48, DOTA-PEG3-K(Z360)-f[CYwKTC]T-OH] | 1.8 | 2.7 | 14 | 19 | 4 | 10.6 | 7.02 | 1.35 | 1.02 | 4.75 | 18.9 |
| C[C@@H](O)[C@H](NC(=O)[C@@H]1CSSC[C@H](NC(=O)[C@@H](Cc2ccccc2)NC(=O)[C@H](CCCCNC(=O)c2cccc(NC(=O)N[C@@H]3CN(C4CCCCC4)c4ccccc4N(CC(=O)C(C)(C)C)C3=O)c2)NC(=O)CNC(=O)CNC(=O)CN2CCN(CC(=O)O)CCN(CC(=O)O)CCN(CC(=O)O)CC2)C(=O)N[C@@H](Cc2ccc(O)cc2)C(=O)N[C@H](Cc2c[nH]c3ccccc23)C(=O)N[C@@H](CCCCN)C(=O)N[C@@H]([C@@H](C)O)C(=O)N1)C(=O)O [Compound I-49, DOTA-G-G-K(Z360)-f[CYwKTC]T-OH] ({DOTA}-GGK([3Abz-CO-X1])[dF]CY[dW]KTCT-OH; disulfide 5-10) | 1.5 | 1.5 | 9.8 | 14 | 3.2 | 5.93 | 5.92 | 0.92 | 0.62 | 2.77 | 8.97 |
| C[C@@H](O)[C@H](NC(=O)[C@@H]1CSSC[C@H](NC(=O)[C@@H](Cc2ccccc2)NC(=O)COCCOCCNC(=O)[C@H](CCCCNC(=O)c2cccc(NC(=O)N[C@@H]3CN(C4CCCCC4)c4ccccc4N(CC(=O)C(C)(C)C)C3=O)c2)NC(=O)COCCOCCNC(=O)CN2CCN(CC(=O)O)CCN(CC(=O)O)CCN(CC(=O)O)CC2)C(=O)N[C@@H](Cc2ccc(O)cc2)C(=O)N[C@H](Cc2c[nH]c3ccccc23)C(=O)N[C@@H](CCCCN)C(=O)N[C@@H]([C@@H](C)O)C(=O)N1)C(=O)O [Compound I-52, DOTA-OEG-K(Z360)-OEG-f[CYwKTC]T-OH] | 0.9 | 2.2 | 14 | 36 | 2.4 | 14 | 5.7 | 0.9 | 0.3 | 5.1 | 12.4 |
| C[C@@H](O)[C@H](NC(=O)[C@@H]1CSSC[C@H](NC(=O)[C@@H](Cc2ccccc2)NC(=O)CNC(=O)COCCOCCNC(=O)[C@H](CCCCNC(=O)c2cccc(NC(=O)N[C@@H]3CN(C4CCCCC4)c4ccccc4N(CC(=O)C(C)(C)C)C3=O)c2)NC(=O)CN2CCN(CC(=O)O)CCN(CC(=O)O)CCN(CC(=O)O)CC2)C(=O)N[C@@H](Cc2ccc(O)cc2)C(=O)N[C@H](Cc2c[nH]c3ccccc23)C(=O)N[C@@H](CCCCN)C(=O)N[C@@H]([C@@H](C)O)C(=O)N1)C(=O)O [Compound I-53, DOTA-K(Z360)-OEG-G-f[CYwKTC]T-OH] | 2.3 | 6.3 | 18 | 52 | 4.8 | 7.15 | 2.57 | 0.91 | 0.31 | 3.36 | 16.2 |
| C[C@@H](O)[C@H](NC(=O)[C@@H]1CSSC[C@H](NC(=O)[C@@H](Cc2ccccc2)NC(=O)CNC(=O)[C@H](CO)NC(=O)CNC(=O)[C@H](CCCCNC(=O)c2cccc(NC(=O)N[C@@H]3CN(C4CCCCC4)c4ccccc4N(CC(=O)C(C)(C)C)C3=O)c2)NC(=O)CN2CCN(CC(=O)O)CCN(CC(=O)O)CCN(CC(=O)O)CC2)C(=O)N[C@@H](Cc2ccc(O)cc2)C(=O)N[C@H](Cc2c[nH]c3ccccc23)C(=O)N[C@@H](CCCCN)C(=O)N[C@@H]([C@@H](C)O)C(=O)N1)C(=O)O [Compound I-54, DOTA-K(Z360)-G-S-G-f[CYwKTC]T-OH] ({DOTA}-K([3Abz-CO-X1])GSG[dF]CY[dW]KTCT-OH; disulfide 6-11) | 2.4 | 2.7 | 9.7 | 36 | 6.3 | 10.5 | 9.6 | 2.65 | 0.71 | 4.1 | 25.8 |
| C[C@@H](O)[C@H](NC(=O)[C@@H]1CSSC[C@H](NC(=O)[C@@H](Cc2ccccc2)NC(=O)CNC(=O)[C@H]2CCCN2C(=O)CNC(=O)[C@H]2CCCN2C(=O)CNC(=O)[C@H](CCCCNC(=O)c2cccc(NC(=O)N[C@@H]3CN(C4CCCCC4)c4ccccc4N(CC(=O)C(C)(C)C)C3=O)c2)NC(=O)CN2CCN(CC(=O)O)CCN(CC(=O)O)CCN(CC(=O)O)CC2)C(=O)N[C@@H](Cc2ccc(O)cc2)C(=O)N[C@H](Cc2c[nH]c3ccccc23)C(=O)N[C@@H](CCCCN)C(=O)N[C@@H]([C@@H](C)O)C(=O)N1)C(=O)O [Compound I-55, DOTA-K(Z360)-G-p-G-p-G-f[CYwKTC]T-OH] ({DOTA}-K([3Abz-CO-X1])G[dP]G[dP]G[dF]CY[dW]KTCT-OH; disulfide 8-13) | 1.1 | 2.5 | 14 | 34 | 7.3 | 20.8 | 9.21 | 1.66 | 0.67 | 3.13 | 23 |
| C[C@@H](O)[C@H](NC(=O)[C@@H]1CSSC[C@H](NC(=O)[C@@H](Cc2ccccc2)NC(=O)CCCCCCCNC(=O)[C@H](CCCCNC(=O)c2cccc(NC(=O)N[C@@H]3CN(C4CCCCC4)c4ccccc4N(CC(=O)C(C)(C)C)C3=O)c2)NC(=O)CN2CCN(CC(=O)O)CCN(CC(=O)O)CCN(CC(=O)O)CC2)C(=O)N[C@@H](Cc2ccc(O)cc2)C(=O)N[C@H](Cc2c[nH]c3ccccc23)C(=O)N[C@@H](CCCCN)C(=O)N[C@@H]([C@@H](C)O)C(=O)N1)C(=O)O [Compound I-61, DOTA-K(Z360)-Aoc-f[CYwKTC]T-OH] | 3.5 | 0.1 | 16 | 0.2 | 4.5 | 1.53 | 53.3 | 0.34 | 28.3 | 1.21 | 5.41 |
| C[C@@H](O)[C@H](NC(=O)[C@@H]1CSSC[C@H](NC(=O)[C@@H](Cc2ccccc2)NC(=O)[C@H](CCCCNC(=O)c2cccc(NC(=O)N[C@@H]3CN(C4CCCCC4)c4ccccc4N(CC(=O)C(C)(C)C)C3=O)c2)NC(=O)[C@H](CCCNC(=N)N)NC(=O)CN2CCN(CC(=O)O)CCN(CC(=O)O)CCN(CC(=O)O)CC2)C(=O)N[C@@H](Cc2ccc(O)cc2)C(=O)N[C@H](Cc2c[nH]c3ccccc23)C(=O)N[C@@H](CCCCN)C(=O)N[C@@H]([C@@H](C)O)C(=O)N1)C(=O)O [Compound I-62, DOTA-R-K(Z360)-f[CYwKTC]T-OH] ({DOTA}-RK([3Abz-CO-X1])[dF]CY[dW]KTCT-OH; disulfide 4-9) | 0.7 | 0.3 | 6.1 | 13 | 6.4 | 14.7 | 32.4 | 1.78 | 0.82 | 1.68 | 10.8 |
